This note sets out measurements from US20230279047A1.

Assay [1] has as its target human polyclonal IgG (Gammanorm) (human). Nature of the assay: DBC column, 6 min residence; ligand 9.7 mg/ml on agarose beads.
For assay [2] the target is unchanged. Described as above. The source holds these as a separate data set.
For assay [3] the target is unchanged. Nature of the assay: DBC column, 6 min residence; ligand 7.0 mg/ml on agarose beads.
Assay [4] shares this target. Nature of the assay: DBC column, 6 min residence; ligand […] on agarose beads.
A further assay concerns the target IgG1 monoclonal antibody. Nature of the assay: SPR (Biacore), ligand amine-coupled on CM5 chip, IgG1 mAb as probe. (SPR reads the build-up and loss of mass on a sensor chip optically.)
The target of assay [5] is human polyclonal IgG (Gammanorm) (human). Nature of the assay: DBC column, 6 min residence; ligand […] on agarose beads. The source holds these as a separate data set.
For assay [6] the target is unchanged. Nature of the assay: DBC column, 6 min residence; ligand 7.2 mg/ml on agarose beads.
Assay [7] has the same target. Nature of the assay: DBC column, 6 min residence; ligand 10.8 mg/ml on agarose beads.

With “Zvar(N11K,H18K,S33K,D37E,A42R,N43A,L44I,K50R,L51Y)4 (designed binder)”, the Initial IgG capacity Qb10 in assay [1] was 56.3 mg/mL; in assay [2], 62.1 mg/mL.

On to “Zvar(Q9A,N11E,N28A,N43A)4 (designed binder)”, for which the Initial IgG capacity Qb10 in assay [3] stood at 49.1 mg/mL; in assay [4], 50 mg/mL.

In the assay with IgG1 monoclonal antibody, “Zvar(Q9A,N11E,Q40V,A42K,N43A,L44I)1 (designed binder)” displayed a Kd of 1.07 nM, a dissociation rate constant (koff) of 0.000437 s⁻¹ and a kon of 410000 M⁻¹ s⁻¹.

On to “Zvar(Q9A,N11E,Q40V,A42K,N43A,L44I)4 (designed binder)”, for which the Initial IgG capacity Qb10 in assay [4] came out at 56.3 mg/mL; in assay [5] it was 60.3 mg/mL; in assay [6] it was 49 mg/mL.

Turning to “Zvar(Q9A,N11K,H18K,D37E,A42R)4 (designed binder)”, the Initial IgG capacity Qb10 in assay [7] was 56.9 mg/mL.

Usually Kd stands for the equilibrium constant for the complex coming apart. The low end stands for a tighter complex, the high end for a looser complex. Usually koff stands for the rate constant with which the complex falls apart. As a reminder, the kon is a measure of how fast the partners come together. A low value points to slow association.
